Measured values reported in doi:10.1101/298455 (bioRxiv, 2018).

Target: human eIF4E (human, UniProt P06730 1-217)
Assay: ELISA

Sequence of human eIF4E (P06730 whole entry): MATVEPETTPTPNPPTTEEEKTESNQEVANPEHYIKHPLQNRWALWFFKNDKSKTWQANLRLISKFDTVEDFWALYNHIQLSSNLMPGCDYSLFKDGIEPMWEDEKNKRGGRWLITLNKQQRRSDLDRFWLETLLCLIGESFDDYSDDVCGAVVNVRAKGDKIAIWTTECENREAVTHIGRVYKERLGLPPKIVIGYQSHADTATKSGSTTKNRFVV

Binder: RKKGKGKGTTVGMGKSSRRFINMYGF [GST-VPg5 fusion protein]
- binding result: binds
